According to article PMC9482650, “Quantitative fragmentomics allow affinity mapping of interactomes” (Nature Communications, 2022):

What was measured:
Assay in all cases: holdup assay
Design in all cases: key: below the threshold = too weak to quantify, mostly under pKd 3.1 to 4
AHNAK1, Q09666 = target: AHNAK1, Q09666
APBA1_2, Q02410 = target: T1, APBA1_2, Q02410
T1 sequence (Q02410 742-832, limits assumed, looked up): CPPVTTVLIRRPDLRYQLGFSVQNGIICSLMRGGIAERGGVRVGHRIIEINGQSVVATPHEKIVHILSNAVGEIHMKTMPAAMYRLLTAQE

APBA2_1, Q99767 = target: T2, APBA2_1, Q99767
T2 sequence (Q99767 563-664, limits assumed, looked up): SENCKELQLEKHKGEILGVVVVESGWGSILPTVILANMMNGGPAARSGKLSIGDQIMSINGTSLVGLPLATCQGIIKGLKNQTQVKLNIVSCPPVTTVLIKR

ARHGEF11, O15085 = target: T3, ARHGEF11, O15085
T3 sequence (O15085 42-136, limits assumed, looked up): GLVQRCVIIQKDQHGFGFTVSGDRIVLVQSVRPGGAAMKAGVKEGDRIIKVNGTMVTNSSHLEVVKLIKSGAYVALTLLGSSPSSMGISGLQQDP

ARHGEF12, Q9NZN5-2 = target: ARHGEF12, Q9NZN5-2
Chain of ARHGEF12, Q9NZN5-2 (Q9NZN5 other isoform, or with tags, fused parts or gaps): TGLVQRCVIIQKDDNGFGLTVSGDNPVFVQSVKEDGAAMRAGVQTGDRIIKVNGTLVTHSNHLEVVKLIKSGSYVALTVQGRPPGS

DLG4_3, P78352 = target: DLG4_3, P78352
Chain of DLG4_3, P78352 (P78352 306-403): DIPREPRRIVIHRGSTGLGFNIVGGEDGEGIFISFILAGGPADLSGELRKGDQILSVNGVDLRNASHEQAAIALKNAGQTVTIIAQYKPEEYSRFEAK

DLG5_1, Q8TDM6 = target: DLG5_1, Q8TDM6
Chain of DLG5_1, Q8TDM6 (Q8TDM6 617-713): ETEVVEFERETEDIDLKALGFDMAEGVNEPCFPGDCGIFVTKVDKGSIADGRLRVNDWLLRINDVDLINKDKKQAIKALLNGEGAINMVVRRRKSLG

FRMPD3, Q5JV73 = target: FRMPD3, Q5JV73
Chain of FRMPD3, Q5JV73 (Q5JV73 12-100): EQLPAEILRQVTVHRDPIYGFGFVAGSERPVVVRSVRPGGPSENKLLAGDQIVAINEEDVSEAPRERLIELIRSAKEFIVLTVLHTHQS

GRIP2_4, Q9C0E4 = target: GRIP2_4, Q9C0E4
Chain of GRIP2_4, Q9C0E4 (Q9C0E4 446-548): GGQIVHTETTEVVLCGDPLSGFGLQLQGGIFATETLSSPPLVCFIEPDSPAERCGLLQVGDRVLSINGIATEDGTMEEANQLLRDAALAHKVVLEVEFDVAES

HTRA3, P83110 = target: T4, HTRA3, P83110
T4 sequence (P83110 354-453, limits assumed, looked up): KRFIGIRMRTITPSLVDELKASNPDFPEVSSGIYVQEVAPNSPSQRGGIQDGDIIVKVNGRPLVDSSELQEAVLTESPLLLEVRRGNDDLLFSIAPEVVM

HTRA4, P83105 = target: T5, HTRA4, P83105
T5 sequence (P83105 378-476, limits assumed, looked up): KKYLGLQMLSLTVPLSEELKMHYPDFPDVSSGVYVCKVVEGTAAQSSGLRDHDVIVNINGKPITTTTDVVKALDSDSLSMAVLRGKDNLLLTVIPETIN

Inadl_3, Q8NI35 = target: Inadl_3, Q8NI35
Chain of Inadl_3, Q8NI35 (Q8NI35 359-469): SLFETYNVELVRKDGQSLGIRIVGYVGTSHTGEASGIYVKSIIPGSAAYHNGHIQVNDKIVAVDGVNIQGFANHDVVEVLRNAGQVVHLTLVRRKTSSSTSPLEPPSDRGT

Inadl_4, Q8NI35 = target: Inadl_4, Q8NI35
Chain of Inadl_4, Q8NI35 (Q8NI35 547-651): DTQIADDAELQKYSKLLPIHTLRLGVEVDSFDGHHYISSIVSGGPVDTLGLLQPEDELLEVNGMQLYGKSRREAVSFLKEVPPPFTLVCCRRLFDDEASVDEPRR

Inadl_9, Q8NI35 = target: Inadl_9, Q8NI35
Chain of Inadl_9, Q8NI35 (Q8NI35 1530-1615): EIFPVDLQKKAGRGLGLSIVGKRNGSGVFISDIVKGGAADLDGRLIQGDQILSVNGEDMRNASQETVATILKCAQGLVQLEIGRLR

LNX1_3, Q8TBB1 = target: LNX1_3, Q8TBB1
Chain of LNX1_3, Q8TBB1 (Q8TBB1 500-596): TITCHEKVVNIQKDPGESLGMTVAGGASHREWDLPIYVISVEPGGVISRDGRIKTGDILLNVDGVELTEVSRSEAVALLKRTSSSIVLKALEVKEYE

LNX2_2, Q8N448 = target: T6, LNX2_2, Q8N448
T6 sequence (Q8N448 334-432, limits assumed, looked up): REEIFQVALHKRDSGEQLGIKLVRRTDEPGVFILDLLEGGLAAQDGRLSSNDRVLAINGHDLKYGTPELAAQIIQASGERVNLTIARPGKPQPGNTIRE

MAGI1_1, Q96QZ7 = target: MAGI1_1, Q96QZ7
Chain of MAGI1_1, Q96QZ7 (Q96QZ7 1-106): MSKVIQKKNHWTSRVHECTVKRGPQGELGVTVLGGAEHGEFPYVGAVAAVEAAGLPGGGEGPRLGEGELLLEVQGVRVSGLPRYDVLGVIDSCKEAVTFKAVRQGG

MAGI2_2, Q86UL8 = target: MAGI2_2, Q86UL8
Chain of MAGI2_2, Q86UL8 (Q86UL8 410-522): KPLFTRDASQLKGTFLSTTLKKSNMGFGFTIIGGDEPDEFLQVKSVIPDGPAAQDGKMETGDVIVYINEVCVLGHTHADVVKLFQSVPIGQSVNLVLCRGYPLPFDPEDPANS

MAGI2_3, Q86UL8 = target: MAGI2_3, Q86UL8
Chain of MAGI2_3, Q86UL8 (Q86UL8 600-682): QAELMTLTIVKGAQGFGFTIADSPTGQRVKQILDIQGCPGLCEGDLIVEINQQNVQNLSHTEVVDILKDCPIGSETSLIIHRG

MAGI2_4, Q86UL8 = target: MAGI2_4, Q86UL8
Chain of MAGI2_4, Q86UL8 (Q86UL8 772-865): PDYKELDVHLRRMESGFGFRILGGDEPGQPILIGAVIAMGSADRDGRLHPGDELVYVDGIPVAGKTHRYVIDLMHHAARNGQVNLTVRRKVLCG

MAGI2_5, Q86UL8 = target: MAGI2_5, Q86UL8
Chain of MAGI2_5, Q86UL8 (Q86UL8 915-1017): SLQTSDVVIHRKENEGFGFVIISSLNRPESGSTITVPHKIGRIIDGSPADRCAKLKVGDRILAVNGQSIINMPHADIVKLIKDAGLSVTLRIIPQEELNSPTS

MAST1, Q9Y2H9 = target: MAST1, Q9Y2H9
Chain of MAST1, Q9Y2H9 (Q9Y2H9 962-1065): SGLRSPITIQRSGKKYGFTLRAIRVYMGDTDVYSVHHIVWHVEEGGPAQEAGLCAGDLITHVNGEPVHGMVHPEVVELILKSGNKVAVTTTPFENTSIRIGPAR

NHERF2_2, Q15599 = target: NHERF2_2, Q15599
Chain of NHERF2_2, Q15599 (Q15599 142-238): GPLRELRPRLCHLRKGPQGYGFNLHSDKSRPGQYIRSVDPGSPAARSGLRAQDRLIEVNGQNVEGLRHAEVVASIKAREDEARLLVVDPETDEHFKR

NOS1, P29475 = target: NOS1, P29475
Chain of NOS1, P29475 (P29475 9-101): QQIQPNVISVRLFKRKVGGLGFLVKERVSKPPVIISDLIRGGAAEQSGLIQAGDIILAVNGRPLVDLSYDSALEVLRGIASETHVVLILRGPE

PDZRN3_1, Q9UPQ7 = target: T7, PDZRN3_1, Q9UPQ7
T7 sequence (Q9UPQ7 244-349, limits assumed, looked up): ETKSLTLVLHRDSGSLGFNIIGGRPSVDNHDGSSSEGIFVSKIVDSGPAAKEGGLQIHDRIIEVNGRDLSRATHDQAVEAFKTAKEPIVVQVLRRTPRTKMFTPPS

PTPN13_1, Q12923 = target: T8, PTPN13_1, Q12923
T8 sequence (Q12923 1088-1188, limits assumed, looked up): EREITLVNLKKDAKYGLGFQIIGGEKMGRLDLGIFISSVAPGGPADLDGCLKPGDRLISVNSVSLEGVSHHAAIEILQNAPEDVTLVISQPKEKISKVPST

SCRIB_3, Q14160 = target: SCRIB_3, Q14160
Chain of SCRIB_3, Q14160 (Q14160 999-1103): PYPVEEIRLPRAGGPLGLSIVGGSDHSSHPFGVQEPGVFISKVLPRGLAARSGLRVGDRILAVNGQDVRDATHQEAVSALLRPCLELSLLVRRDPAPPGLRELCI

SHANK1, Q9Y566 = target: T9, SHANK1, Q9Y566
T9 sequence (Q9Y566 658-767, limits assumed, looked up): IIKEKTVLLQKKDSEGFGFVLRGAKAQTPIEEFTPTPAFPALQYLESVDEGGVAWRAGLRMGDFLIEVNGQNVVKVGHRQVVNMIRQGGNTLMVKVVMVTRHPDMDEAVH

[1] = plain residues with an end cap or a label only (N-terminal biotin on a linker: ahx)
[2] = plain residues with an end cap or a label only (N-terminal biotin on a linker: ado-ado, ttds)
[3] = plain residues with an end cap or a label only (N-terminal biotin on a linker: ttds)
[4] = plain residues with an end cap or a label only (N-terminal biotin on a linker: ado-ado)

Measured: pKd

Chain of AHNAK1, Q09666 (Q09666 4-100): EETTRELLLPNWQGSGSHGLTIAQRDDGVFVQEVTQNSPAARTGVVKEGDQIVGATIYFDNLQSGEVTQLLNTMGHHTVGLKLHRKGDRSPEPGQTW

SKKNELFSNL [NHERF1, O14745]
3.48: APBA1_2, Q02410; [1]
below the threshold: AHNAK1, Q09666; [1] | APBA2_1, Q99767; [1] | ARHGEF11, O15085; [1] | DLG4_3, P78352; [1] | DLG5_1, Q8TDM6; [1] | FRMPD3, Q5JV73; [1] | GRIP2_4, Q9C0E4; [1] | HTRA3, P83110; [1] | HTRA4, P83105; [1] | Inadl_3, Q8NI35; [1] | Inadl_4, Q8NI35; [1] | Inadl_9, Q8NI35; [1] | LNX1_3, Q8TBB1; [1] | LNX2_2, Q8N448; [1] | MAGI1_1, Q96QZ7; [1] | MAGI2_2, Q86UL8; [1] | MAGI2_3, Q86UL8; [1] | MAGI2_4, Q86UL8; [1] | MAGI2_5, Q86UL8; [1] | NHERF2_2, Q15599; [1] | NOS1, P29475; [1] | PDZRN3_1, Q9UPQ7; [1] | PTPN13_1, Q12923; [1] | SCRIB_3, Q14160; [1] | SHANK1, Q9Y566; [1]
3.6: MAST1, Q9Y2H9; [1]
3.98: ARHGEF12, Q9NZN5-2; [1]

SNAKAVETDV [KCNA4, P22459]
3.88: ARHGEF12, Q9NZN5-2; [2]
below the threshold: AHNAK1, Q09666; [2] | APBA2_1, Q99767; [2] | DLG4_3, P78352; [2] | DLG5_1, Q8TDM6; [2] | FRMPD3, Q5JV73; [2] | GRIP2_4, Q9C0E4; [2] | HTRA3, P83110; [2] | HTRA4, P83105; [2] | Inadl_4, Q8NI35; [2] | Inadl_9, Q8NI35; [2] | LNX1_3, Q8TBB1; [2] | MAGI1_1, Q96QZ7; [2] | MAGI2_2, Q86UL8; [2] | MAGI2_5, Q86UL8; [2] | PDZRN3_1, Q9UPQ7; [2] | PTPN13_1, Q12923; [2] | SHANK1, Q9Y566; [2]
3.51: Inadl_3, Q8NI35; [2] | LNX2_2, Q8N448; [2]
3.59: ARHGEF11, O15085; [2] | NHERF2_2, Q15599; [2]
3.54: MAGI2_3, Q86UL8; [2]
3.79: MAGI2_4, Q86UL8; [2]
3.5: APBA1_2, Q02410; [2]
4.32: MAST1, Q9Y2H9; [2]
3.48: NOS1, P29475; [2]
4.8: SCRIB_3, Q14160; [2]

PPRQRSETQV [HPV82-E6, Q9IR59]
4.05: SCRIB_3, Q14160; [3]
3.73: LNX2_2, Q8N448; [3] | MAGI2_3, Q86UL8; [3]
5.89: MAGI2_2, Q86UL8; [3]
3.74: ARHGEF11, O15085; [3]
3.72: ARHGEF12, Q9NZN5-2; [3]
4: MAGI2_5, Q86UL8; [3]
4.72: MAGI2_4, Q86UL8; [3]
below the threshold: AHNAK1, Q09666; [3] | APBA1_2, Q02410; [3] | APBA2_1, Q99767; [3] | DLG5_1, Q8TDM6; [3] | FRMPD3, Q5JV73; [3] | GRIP2_4, Q9C0E4; [3] | HTRA3, P83110; [3] | HTRA4, P83105; [3] | Inadl_3, Q8NI35; [3] | Inadl_4, Q8NI35; [3] | Inadl_9, Q8NI35; [3] | LNX1_3, Q8TBB1; [3] | MAGI1_1, Q96QZ7; [3] | NHERF2_2, Q15599; [3] | PTPN13_1, Q12923; [3] | SHANK1, Q9Y566; [3]
3.81: PDZRN3_1, Q9UPQ7; [3]
4.41: MAST1, Q9Y2H9; [3]
4.43: DLG4_3, P78352; [3]
3.88: NOS1, P29475; [3]

SSIDLWETAL [SLC15A5, A6NIM6]
below the threshold: AHNAK1, Q09666; [3] | APBA2_1, Q99767; [3] | DLG4_3, P78352; [3] | DLG5_1, Q8TDM6; [3] | GRIP2_4, Q9C0E4; [3] | HTRA3, P83110; [3] | HTRA4, P83105; [3] | Inadl_4, Q8NI35; [3] | LNX1_3, Q8TBB1; [3] | LNX2_2, Q8N448; [3] | MAGI1_1, Q96QZ7; [3] | MAGI2_3, Q86UL8; [3] | MAGI2_4, Q86UL8; [3] | PTPN13_1, Q12923; [3]
5.38: SHANK1, Q9Y566; [3]
4.33: MAGI2_2, Q86UL8; [3]
3.7: Inadl_9, Q8NI35; [3]
5.24: ARHGEF11, O15085; [3]
5.22: ARHGEF12, Q9NZN5-2; [3]
4.97: MAGI2_5, Q86UL8; [3]
4.66: Inadl_3, Q8NI35; [3]
4.29: APBA1_2, Q02410; [3]
5.87: PDZRN3_1, Q9UPQ7; [3]
5.71: SCRIB_3, Q14160; [3]
5.45: MAST1, Q9Y2H9; [3]
5.41: NHERF2_2, Q15599; [3]
4.36: NOS1, P29475; [3]
4.31: FRMPD3, Q5JV73; [3]

ELKAEDEVQI [DCHS2, Q6V1P9]
3.74: NOS1, P29475; [4]
3.71: LNX2_2, Q8N448; [4]
below the threshold: AHNAK1, Q09666; [4] | APBA1_2, Q02410; [4] | APBA2_1, Q99767; [4] | ARHGEF11, O15085; [4] | ARHGEF12, Q9NZN5-2; [4] | DLG4_3, P78352; [4] | DLG5_1, Q8TDM6; [4] | FRMPD3, Q5JV73; [4] | GRIP2_4, Q9C0E4; [4] | HTRA3, P83110; [4] | HTRA4, P83105; [4] | Inadl_3, Q8NI35; [4] | Inadl_4, Q8NI35; [4] | Inadl_9, Q8NI35; [4] | LNX1_3, Q8TBB1; [4] | MAGI1_1, Q96QZ7; [4] | MAGI2_2, Q86UL8; [4] | MAGI2_3, Q86UL8; [4] | MAGI2_4, Q86UL8; [4] | MAGI2_5, Q86UL8; [4] | MAST1, Q9Y2H9; [4] | NHERF2_2, Q15599; [4] | PDZRN3_1, Q9UPQ7; [4] | PTPN13_1, Q12923; [4] | SCRIB_3, Q14160; [4] | SHANK1, Q9Y566; [4]
